{
  "source": "patent US20170073664A1",
  "assay_in_all_cases": "cell_activity",
  "key": {"[1]": {"system": "AAVS-SBI TALEN left (pZT-AAVS1 L1)", "settings": "pair with right TALEN, 300 ng donor; control 111"}, "eGFP-TALEN-18-right": {"system": "eGFP-TALEN-18-right", "settings": "pair; clone 6F HEK293; control 324; 95.6% positive in flow"}, "eGFP-TALEN-18-Left": {"system": "eGFP-TALEN-18-Left", "settings": "pair; clone 6F HEK293; control 324; 95.6% positive in flow"}, "AAVS original TALEN left": {"system": "AAVS original TALEN left", "settings": "pair with right TALEN, HEK293F, 300 ng donor; control 111"}, "[2]": {"system": "AAVS-SBI TALEN right (pZT-AAVS1 R1)", "settings": "pair with left TALEN, 300 ng donor; control 111"}, "[3]": {"system": "AAVS original TALEN right", "settings": "pair with left TALEN, HEK293F, 300 ng donor; control 111"}},
  "data": [
    {"sequence": "CCCCTCCACCCCACAGT (double strand) [AAVS left half-site without first T]", "values": [
      {"measurement": "activity (blasticidin-resistant colonies)", "setting": "[1]", "value": 2800}
    ]},
    {"sequence": "CGAGGAGCTGTTCA (double strand) [eGFP TALEN right half-site (TALEN reads complement)]", "values": [
      {"measurement": "activity (blasticidin colonies per 10^6 cells)", "setting": "eGFP-TALEN-18-right", "value": 1080}
    ]},
    {"sequence": "TCCACCGGTCGCCA (double strand) [eGFP TALEN left half-site]", "values": [
      {"measurement": "activity (blasticidin colonies per 10^6 cells)", "setting": "eGFP-TALEN-18-Left", "value": 1080}
    ]},
    {"sequence": "TCCCCTCCACCCCACAGT (double strand) [AAVS left TALEN half-site]", "values": [
      {"measurement": "activity (blasticidin-resistant colonies)", "setting": "AAVS original TALEN left", "value": 1420}
    ]},
    {"sequence": "TTTTCTGTCACCAATCCT (double strand) [AAVS right TALEN half-site]", "values": [
      {"measurement": "activity (blasticidin-resistant colonies)", "setting": "[2]", "value": 2800},
      {"measurement": "activity (blasticidin-resistant colonies)", "setting": "[3]", "value": 1420}
    ]}
  ]
}
